# Experimental data published in the domain aggregation screens of Martell et al. (2025).
# Test: soluble fraction after stress (log2 fold change); higher = more stays soluble; pooled small domains, quantitative proteomics
# Settings: stress: 50 degC
# How it was run: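 Quantitative proteomics served as the high-throughput read-out for pooled custom libraries of small protein domains. Each was stressed at 50°C. Aggregation propensity is expressed as the base-two log fold change in soluble protein after stress. A higher value means a larger share of the protein remains in solution.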
row,Sequence,soluble fraction (log2)
1,HMIFNENLKSAREKKGLSQKEVAEAIGVAKSTYSLYESGNREPNVQTIKRIADVLNVSADVLLGL,0.00744
2,HMASELQQVQALLESQRYNEALILIETTIGKGASESTELLFARADVFASSGRHDEAEQAYREL,-0.0838
3,HMLHEFSGVVVSILADTGPSTLKQLHRSLISSDVKMDEKELMQILDEALSSGSVTSHRKGRYLYYSANK,-0.58
4,HMPEPLTARETEVLRLLSGGYSNREIAAAMFLAEGTIKNHVSAVLLKLGVRDRTRAVLRGLELGLIQ,-1.81
5,HMKEPPTLEEIKNYFASKLSTELESEKFFNYFESNGWLVGGKTPMKNWQSAANNWLINMSKFN,-0.47
6,HMEKYNIIVDNEDNFRLDKIIALNMKDLSRTMIQEMINRGLVSVNGKITKASYKTKLNDQIEIMIED,-0.28
7,HMDRMIPPYGLEVTYDKTTHIIFPSAVRYVDLGSPNLIAGKADGSENVIRVKATRKNFREETNMSVITE,-0.043
8,HMDLRYKVQYNFIDQGMMTKDELLKFSLNQDDVSKIAVFDNDSKQWKEIYAITEISEKLGIS,-0.0611
9,HMQNEVMPYSTFLSEVNSGNVTKVKIDHEQLTGTLKSGKQFTTYILDAATLPSIVAEKGVEVEVVPP,0.357
10,HMTKQNVVPLMYRMIDTLEQFIKADVPFNIETRLARVERLRETMVSSSVTTSEKFRQVLEAYTIETD,-0.924
11,HMDTTLFGLFQNVILTQEDYEELSRTIVEDLDGLIDRLSAYMTSTGKTYKNHKATLLSWYLQDEKKFK,-1.82
12,HMVVMKGKVKWFNKNKGYGFIITDDNKEYFVHWKSIVTNSPRELKVLEQDELVTFDLMETDKGIQAINII,-2.14
13,HMGVEALTPRQREVLALMAQGRSNGWIAAELGLSEKAIVQHTSNIYDMLGLAVDADDHRRVLAVIHYLT,-1.25
14,HMARPLHVDALIHLGTEIGSRVGGAHAGPHLLVAGHSPMSELVYARLLGIPTLGWMRGQLTFVNLSK,0.155
15,HMTMPDFGYMRVSYAEARRQLQAIGISVSTIEKVEDPSHTSATGDMVISQYPAAGSKIEGTVTLYVSVAS,-0.779
16,HMSLDLNENEKTIFDIIQNKKTIRLSELKIEAGLSNKGWDKAMKSLTKQGLAKVVKTEDQLTVKLL,-0.0993
17,HMADVYFDGKFLGETPVTVAVSTTGKPAHEISLIRGGYEPWSTTYQGNPRPGQTATVMAILVHA,0.287
18,HMKAQVKSVLDDIPGIGQTRRKALMRYFKSLEKIREASVEELKEADAMNERAAQSVYAFFHK,-0.471
19,HMGNRQEQVRIIRDLWRQLADAGQPVPAKHLTLDLDALDATQLTKLEDQAHGWLAKLSAQADLADAA,-0.0488
20,HMASELVSADEKYSGLVSYLLGRVVVVDQIDHAIALAKKYRYSLRIVTLDGELLSPGGSMTGGAFKNS,-0.0628
21,HMSGGNTSAFKGKLNYEYRGNDTIITGSTYPVKELIKKAGGRWDPGSSAWIIKGRHVSDNEIF,0.171
22,HMNDAARQTTDILQHVRSSGSISFRDLWRLFMPFMAYRDFDAAVKSLVAAGHIATTENERKELHLIAF,-0.542
23,HMAGYDTYMVDRDAELLPWLLETLQRESRSKVKATLQGNGIKVNGKRVTQFNYPLKAGMKVSVSKSK,-0.0376
24,HMFAATGTVNTEGSSLRLRAEASTSSSVLKQLSHGTQVDVLSGLVDGWYQVSYKGTTGYVSGEYLTVTE,-0.451
25,HMGEENLKYPLLTDGSVKTTVLEAIDKDEKWLREELAKQGYDDLSKLFLVDYLGGQLVVTPY,0.277

row,Sequence,soluble fraction (log2)
1,HMSGVSESIEKKIQYLLLEKPLPLHDLIEAIEIGKEEDRLKVLRSLMDSDTVKIEDDLYHWNA,-0.0841
2,HMRGGLATLTPRERQVLALMAEGRSNAGIAAELVVSGGAVEKHVASIFTKLGLPPDESDNRRVLAVLRHLG,-0.661
3,HMALTARDLGLTHRQADVLHLVLQGKPVKLIARDLGLAEGTVKSHVSAVLRALNVTTRTQAIVAAGRLGLM,-1.92
4,HMLIADSDALRSQIESILNGNPNEVASFRAGKESLMGWFVGQVMRSTGGKADPKRTRELLQELLTK,-0.102
5,HMEVLSYYGSRGQEVVNIQTKLKQWGYYKGNIDGIFGNLTYQAVREFQRKNGLKVDGIVGPETLAALGLPT,-0.187
6,HMIHKTDAINLGQRLLKSSLKEFDVSLKDIPNKTLMYILSEYKFNSLDDLYREIGLGNVIPKLVALRMAP,-0.423
7,HMENPLVEVVVPVLNEERILKANIETLHHFLRTQPGFNFRITIADNGSTDKTQAIANDLTNSHAVIRV,-0.12
8,HMFKYRELLDWAKNRFDDLEVSIAPKALALLVESIGTDLRLLDSEIQKLSMYKPLEMISTNDVEDLVA,-0.357
9,HMPSREDFAYDSIKEAILSGELLPNQKISLSDLANKLGISIIPVNSAVGRLVAEGLVRQDPHHSPYVV,0.345
10,HMVNGTPADPYDVLGVESSASPEELRAAWQTLVRQNHPDQLMARGVPLEAVKLAEARLVAINQAWDDLTK,0.0363
11,HMYSDQRMEIFLEHLPDFIEQLSHKHVTRQMVWEDYRMIYPDGYGKSQFFFHLAQNLKAQKP,-3.3
12,HMTKPAEVRIDELMNAAQTLFLAKGVEATTISEIIASVGVAKGTFYHYFESKQHIVEALKKRYID,-1.49
13,HMNELPSVIIMKNGRTRPYELQEISKDEEWLNQTIREHGIEPKDIFIAEFWDGRTAFILNDGRIVK,-0.555
14,HMDELVYVPNITGKTVEEARTELQKRDLGLNIAGHQFSDEFGKGRIISQDPAAGSRLKVNRSISVIVSSGQ,0.206
15,HMVPVSIYAYNKIKTAILNNELMPGEKLVEASLAETLNMSRTPIREALRQLEQEGFVTYYPQKGSIVSH,-0.657
16,HMGSWDDFFNAIRLDNPNTLQALLQRGFDPNTVDQQGTPALMRALQEQSYRAAEVLADHPQI,-0.459
17,HMAPQSAAAILRYLSSGAIRGVGPATAQRIVERFGTDSLEIIQNRPKELAAINGISINKALSISEEYAKQY,-0.831
18,HMDPASYEARLSTLREQGAQQLDPVRFQYLATLAQRLPTQTPGVALILANKLRAGLSDYEQRLSEAGS,-0.0289
19,HMAQILEPSVALKKLLELKQAGFEDETLVGWIRKVEFTRPLTPDDLLEWKGAGISQAVIRAAM,-0.0938
20,HMNQDMINFDKLSVRLKNVLIENNLKTVDSLLNYPAEEFEYLTNLGEKTLQELLTYRNELAASNNIQ,-0.289
21,HMYFGDADGNKKVDAADALYLKRHLADWEDYRELPQKTNVSWMDEASPANLMILERHIAGWKDYEMLPYT,-0.293
22,HMKALPSAEDVALARESGRVLSTVLQTRAETQQIDFHDDKGAVRSVTLPTTALRLLLDVLTEIGQGNAV,-0.23
23,HMGMSKQKQSSLVRIIMQEISDANEGRMKMSQIIDAALIKGISDSTVRSVISRLSTTGAIYEPQTGTYEW,-0.643
24,HMSQLDITEARIVVSGGLGMQGPENFKLLEELAKVLGGAVGASRPVVDNGWREYSNQVGQTGKIVAPELYV,-0.0903
25,HMVQVDNELTEFSVQSITRGIDALGEVTIRVTAPDGGVYTGRGADNDIIVSSTKAYLNALNRLLNDK,-0.229

row,Sequence,soluble fraction (log2)
1,HMTLTIEDQLRRLRARLGRGRAFLFSDVLVNPHDRTEIAVTLLALLELIKRREAQASQSYLFGPIEVAAA,-1.94
2,HMEYREFEAMTIRAIATLPPTQGHVIMLSRFEGLDNKEIALRLNLSLQTVKNTLTQGLKELKNKMRKLP,-1.8
3,HMKRDYELPAFIETYLKKNHVAIDTKSAAMIAEHIGADLSRLISELDKVMISLPDDDRRVTPDVVEREI,-0.00533
4,HMKEEDYEVFMRLINVRGIGPKSALNILGVISGQEMIQAIENDDIKRLKSLPGIGAKTAGQIVLDLKGKFV,-0.649
5,HMVDEAQSLERNVLLTVLSRIGRDSRVVLTHDIAQRDNLRVGRHDGVVAVVDRLKGHPLFAHVTL,0.012
6,HMKDESQLVGAEGKAVTPLRPTGVALIGEKRLDVLTEGEFIPRNSDIIVSRVEGNKIIVKLKN,0.177
7,HMVGKIVVPHLEGKPAEMARDILARDGFKSVHEEVLPSAEFGAGRVVRTEPHAGTNVAKTDPVTIFVSVGL,-0.00887
8,HMTLNQEELMGKTEAILFAGGEPVSLDRIAQVLGVRTPVIDSIVSALQEKYNTPTSGIQLMRL,-0.143
9,HMAGQWQQDQNGWKYKTDNGDHMKNTWYQDSDSRWYYFGPDGYMKSSTMTPDGYVVGSDGAWIE,-0.518
10,HMDGYLQLASKKNELITQLKTPPKPKRLFKDFEDRVYLITEYKVFVVSIFQNEFRLRPVNKDDFYRYTT,0.207
11,HMREVDKRYYKINIAGTDRIFTNVYRVGDRYSAYEADKNGKPGKFLYSLSQAEIDRAVISGSFDFK,0.105
12,HMTDYKTNLQEFLQQDGEVEIEYKLLAEVGPSHARQFEVDVMMGDRVLGSGVGRNKKAAEQAAAKVALSKL,-0.124
13,HMAVVQMVDRPGGLDELLKDVVRAGVNFANAYGRTASDGNSAFFVIDIQDIPGARQKLADVGLQILADEAV,-0.192
14,HMKSLLTHAEEFVRNNNGRWMLAETSSKESYSSKQNFYLRNNYSIISEIRDFYSVGDNLLVFGKFFT,0.0992
15,HMALTAEVLRSLIKHHGLGQSIQRTAKAVGLSASTVKKYFDRIAAANLTWQEAKSRTQEELIASLQPT,-0.358
16,HMSPSTNKTFSFSKENISIGQTVFIKKLNQNATVLTLPNKSNQLQVQFGVITMNVKLEDLALPTN,-0.171
17,HMTIAEGLIFRFTEPFKPIDQYTYYIMGDNKVEQIPNFKTLEVMLAQRNQNYLSVRVIEKSQLDDILKEF,-4.04
18,HMINLDYILELIFEKNNKTKDKTALIEEIRGVIRASVGNRAKESLIVDFINDTDLDTITDKASIIESFFEY,-3.51
19,HMAATVKVPDLTKMTPDEAQRALGQVGLKGKQGDDVDDDSVPVGYIAKQDEAPNSDAKAGDTITYHL,0.16
20,HMDVTSLDMLRFLMDQHGLRQQDLSELGSQGVVSEILAGKRELNLRHIGALARRFKVPPEVFLPA,-0.631
21,HMKPRISMITLGVKDLNKSIEFYGGGLGFPRKKTEPEIAIFKLNGSWLSLYNRGLLAEDANVS,-0.0946
22,HMRFTVSDKMDMLLKSLSAGQSMPFKSLFASASTKSEVIVTFLALLELMKLNQFVVWQDQILGEIEIERR,-0.554
23,HMSKLIDQELINFFKNQIESKSFRYGVSIEDSYEEIKSNQIKFYGEQEDKLKAIDNAFIELKRERAGIR,-0.00405
24,HMRGESFSTLVSILQEMSARKAAQVLNGLSEGLAVEVLRALPSDVAGDILGRMDAAKAAALMEQLST,-0.17
25,HMDLDPVEKLHLLSQLYVGQLKGSFVVKEKNQKTTIIGEVRELSHQTLSIRTNEGYRLIEVADILEIRLWE,-0.221
